Measured values: US20140335096A1 (Eli Lilly, published 2014)

B1: anti-glucagon monoclonal antibody IBA009 (antibody, mouse IgG1, kappa, V domains shown)
VH: QVQLLQPGAELVKPGASVKLSCKASGYNFNDYWLNWVKQRPGQGLEWIGNAYPGWGIINYNEKFKSKVTLTVDTSSSTVYMQLSSLTSDDSAVYYCARDYDNAYWGQGTTVTVSS
VL: NIVMTQSPKSMSMSVGERVTLTCKASENAGTYVAWYQQKPEQSPKLLIYNGSHRYDGVPDRFTGSGSATDFTLTISSVQAEDLADYYCGQSYSYPWTFGGGTKLEMKR
notes: Captured through goat anti-mouse Fc in Biacore; biotin-labelled as capture antibody in the sandwich ELISA; also called capture antibody IBA009; anti-mid region antibody IBA009
B2: anti-glucagon monoclonal antibody IBA032 (antibody, mouse IgG1, kappa, V domains shown)
VH: QVQLQQSGAELVKPGASVKMSCKASGYNFTDYWIHWVKERPGQGLEWIGYFSTHSDYAIINQKFRDKATLTADKSSRLAYMQLSSLTSEDSAIYYCARGGLGLSYWGQGTTVTVSS
VL: DIVMTQAAPSVLVTPGESVSISCRSPKSLVGPMGRTYLYWFLQRPGQSPQLLIYRRNNLAPGVPDRFSGSGSGTAFTLRISRVEAEDVGIYYCMQHLEFPLTFGAGTKLEIKR
notes: Captured through goat anti-mouse Fc in Biacore; ruthenium-labelled as detection antibody in the sandwich ELISA; also called detection/conjugate antibody IBA032; anti-glucagon C-terminal antibody IBA032

Legend:
glucagon (1-29) [1] = target: T1, glucagon (1-29) (Homo sapiens); test: Biacore SPR, antibody captured by goat anti-mouse Fc, glucagon (1-29) as analyte, 25 C, 1:1 Langmuir model
T1 construct: Glucagon (1-29), Anaspec 22456, as analyte in Biacore; the listing names Homo sapiens; also called GCG; glucagon peptide
T1 sequence (peptide, as listed by the source): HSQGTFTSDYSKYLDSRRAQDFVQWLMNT
Procedure: (§1) Briefly described, the anti-glucagon monoclonal antibody IBA009 or IBA032, may be dissolved in HBS-EP buffer (150 mM sodium chloride, 3 mM EDTA, 0.005% (w/v) surfactant P-20, and 10 mM N-2-hydroxyethylpiperazine-N′-2-ethanesulfonic acid (HEPES) at pH 7.4; #BR-1001-88). Goat anti-mouse Fc antibody is immobilized on flow cells 1 to 4 of a CMS sensor chip at a level of 4000 response units (RUs) using amine coupling chemistry to capture anti-glucagon antibodies.
(§2) Binding may be evaluated using multiple analytical cycles. Each cycle is performed at a flow rate of 50 μl/minute, and may consist of the following steps: injection of about 10 μl of the anti-glucagon monoclonal antibody IBA009 or IBA032 at 10 μg/ml aiming at a capture of 40-100 RUs, injection of 250 μl of glucagon (1-29) (Anaspec 22456)—(starting at 100 nM and using two-fold serial dilutions for each cycle) followed by 20 minutes for dissociation, and regeneration using about 30 μl of 10 mM glycine hydrochloride, pH 1.5. Association and dissociation rates for each cycle may be evaluated using a “1:1 (Langmuir) binding” model in the BIAevaluation software 4.1.
(§3) The anti-glucagon monoclonal antibodies IBA009 and IBA032 may be tested for binding kinetics to glucagon.

glucagon (1-29) [2] = target: T1, glucagon (1-29); test: affinity for glucagon against commercial antibody 2D3-2B11 (Sigma-Aldrich WH0002641M1); method of the reference value not stated
glucagon (1-29) [3] = target: T1, glucagon (1-29); test: Biacore SPR, antibody captured by goat anti-mouse Fc, glucagon (1-29) as analyte; KD = koff/kon
Procedure: as §1, §2, §3

glucagon (1-29) [4] = target: T1, glucagon (1-29); test: affinity for glucagon against commercial antibody K79bB10 (Sigma-Aldrich G2654); method of the reference value not stated

Binder | koff (glucagon (1-29) [1]) [s⁻¹] | kon (glucagon (1-29) [1]) [M⁻¹ s⁻¹] | fold stronger affinity than reference antibody 2D3-2B11 (glucagon (1-29) [2]) [fold] | Kd (glucagon (1-29) [3]) [pM] | fold stronger affinity than reference antibody K79bB10 (glucagon (1-29) [4]) [fold]
B1 | 1.1e-05 | 1.5e+07 | ~130 | 0.73 | –
B2 | 0.00024 | 2.7e+07 | – | 8.7 | ~800
